Measurements as given in article PMC3598421.

T1: BdSWN5 (Brachypodium distachyon, UniProt I2E2W5 1-346)
T1 sequence: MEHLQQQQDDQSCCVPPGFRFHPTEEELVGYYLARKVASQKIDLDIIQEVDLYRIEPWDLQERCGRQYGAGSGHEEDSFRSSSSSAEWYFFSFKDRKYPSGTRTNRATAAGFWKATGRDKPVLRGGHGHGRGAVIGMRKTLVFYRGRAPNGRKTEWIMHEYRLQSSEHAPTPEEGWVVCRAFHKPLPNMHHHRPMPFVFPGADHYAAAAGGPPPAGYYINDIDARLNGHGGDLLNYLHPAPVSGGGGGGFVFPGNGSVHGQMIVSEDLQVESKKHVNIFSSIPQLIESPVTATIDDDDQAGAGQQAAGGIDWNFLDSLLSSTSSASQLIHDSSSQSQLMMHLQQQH

B1: SNBE1 M1 motif (dsDNA)
DNA 1: AGCATACATTTATAGGAAGCGTATTCTCGCAGTCA
DNA 2: TGACTGCGAGAATACGCTTCCTATAAATGTATGCT
B2: SNBE2 M2 motif (dsDNA)
DNA 1: TTTTACATTGCATATGCTTTGTATCAATTGCCCAA
DNA 2: TTGGGCAATTGATACAAAGCATATGCAATGTAAAA

Molecular target: T1, BdSWN5
Test: competition

| Binder | binding result |
| --- | --- |
| B1 | no binding |
| B2 | no binding |
